From the DeepSol protein solubility set

Experiment: soluble on expression in E. coli; label from the status in PepcDB or PDB records

Sequence: MTKAVVIGGGLAGLATTALLLREGYEVHLVEQNEHLGGRAGTFELDGFRWDTGPSWYLMPDAMSHFFKLCGTSIDDHLDLVPLEPAYRVIDDHGEFIDVTSDIDAMAELFESREPGAGAKLRTYIDSATQVYNLAIDGFLYTNFTNFIPYLSPGMLRLLPKLLASLSTSLKVKVNTQFRDTKLRQILSYPAVFLSSDPSHTPALYHLMSHTDLVQGVSYPRGGFTAFIKALISLIDDAVLHLGTPVSAITTQGRNATGVQVGSEFIEADIVISCADQHHTETQLLPASLCAKPETSWKNKQPGLSTVLVLAGVKGEHTLLFPPTGTKISAKFSTAPPQNSRLQNPSRSPRPPQQIPMPHPKATRTSSSWSQYPPMSPLVTGPLTEKNLTWWAGSQLEHHHHHH
- soluble on expression in E. coli: not soluble

Sequence: MSLPWLHRETARSFGGAGSTAGYEQVTAYTLTGQLQSRHLNLPQLDCDYDWNDNGQLIRISGPQESREYRYSDTGRLTGVHTTAANLDIDIPYATDPAGNRLPDPELHPDSTLTAWPDNRIAEDAHYVYRYDEYGRLTEKTDRIPEGVIRMHDERTHHYHYDNQHRLVFYTRIQYGEPLVESRYLYDPLGRRTGKRVWRRERDLTGWMSLSRKPEVTWYGWDGDRLTTVQTGTTRIQTVYRPGSFTPLIRIETENGEREKAQRRSLAEKLQQEGSEDGHGVVFPAELVRMLDRLEEEIRADRVSSESRAWLAQCGLTVEQLEKQVEPEYTPARTLHLYHCDHRGLPLALISEDGNTAWSAEYDEWGNQLNEENPHHLHQPYRLPGQQHDEESGLYYNRHRYYDPLQGRYITPDPIGLRGGWNMYQYPLNPIQVIDPMGLDAIENMTSGGLIYAVSGVPGLIVANSITNSAYQFGYDMDAIVGGAHNGAADAMRYCYLMCRMTKTEGHHHHHH
- soluble on expression in E. coli: soluble

Sequence: MSLKWSAIPFQTLYRSIESGEFDFDLFKEVLPDLQNLNLNTDKLKNNASRSQLEKGEIELSDGSTFKVNQEFIFEAISLSDELNLDEIVACELILSGDTTANNGKVQYFLRRQYILQIVSFIVNCFHEDTELYQELIKNGALVSNILSAFKFIHTQLSEIKQQINKAQILENYNALFQQNIKFRRDFLLREYDILSQILYGLVDKGAIMKNKDFILSLLHHVSELDSNDFFIIYYTPAFFHLFASLRVLPDADVKLLHSQFMKDLKDDSIYTKPVKVALIFIFFAYFIGWCKEDPKRRADTMDFKTDVDEPMTSAVELGAIEQILIFAADTSIVEQDKSMELFYDIRSLLERHIPRLIPKQLLDDEKIFSQTTNSTYNPASATDNMSGRGLWNPSYPGMMSTTGTARLNSMPNNVNEYSYTTIVLSDQTQEFFLSSFDDVLQTIITDCAFLLTKIKDAEEDSLLSGEDLTLDDISLKADLERFFLSIYFFYASRPEYSCTFWSDKESNAYGFIEWCSRCNDNLMRSCFYLMVSSLSFGPENALNVYHYFGENSSISWKNIAQCLSDYTKKISNFNSSLHKRQQFSESTHNDIDSTAVALEEGLNEEAVIFLSSLLTLVGSVTYQVDEDVKSSLSKVFSDVLFEFTKINTPLVGAAFKVISNLVPKLESSRTKFWSFLDSLIFKDSSLNYSSESYRNAFTNVLTKYSDVLGFLQLFHNLISIHSREGHHHHHH
- soluble on expression in E. coli: not soluble

Sequence: MGSDKIHHHHHHVVNAIEVSDISKQFVLRHTRSIKEAVVWLAKGRKGDLSEKFHALKNVTLEVKTGETVALLGLNGSGKSTLLKHISGVMLPDSGTVRTRGRVAGLIEVGAGFHPDLSGRDNVYLNGAILGMTEQQVNDRFDDIVEFSETGQFIDTEVKFYSSGMYLRLAFSVAVHTDPEVFLIDEILAVGDEPFQRKCIDKIQELARNGKTLVVVSHDLDLVSRICARGILLEHGNVKFDGSIHDAVALLRA
- soluble on expression in E. coli: not soluble

Sequence: MSFRHFKRRLDTSSADESSSADEEHPDQNVSLTEKSASLSHSDLGGEILNGTGKNRTPNDGQESNESDGSPESDESPESEESSDNSDSSDSDDMRPLPRPLFMKKKANNLQKATKIDQPWNAQDDARVLQTKKENMIKNIDKANQVAKNYETMKLRLNTNYSTNEELIKQCLLLDDNDEVDSEKERQKWFERQNERKQKHRRIQLAKQRESEEYEAKRFEAMQKGKDGNTKYDVILDKEKEKLDHKKQRSAEKVEKSHNNNRYKITRTKNVEFGDLGKNSRDYEETEYSVI
- soluble on expression in E. coli: soluble

Sequence: MRPLTRLVPLALLLLAGCAGPLPQPDPQMAWVELRSAPANTLLAERLDGERLSDGRYFQVTPGRHVLEVRFQYELYGGSGGGGGGFGEPVQINCYQQVVYDGFEAGRRYRLEVRPQLRRALALLSDERGEVVARSNFQTSRCPPY
- soluble on expression in E. coli: not soluble

Sequence: MAHHHHHHMAFNQRFDRGAQPSYAAVQLPPGWQMAYSVEGEVYYIDHNTRTTHWKIPQEVLNEMYHQGQTYRPSRSRRGIDRSKMKTKMCMNIQNGGKCTWGNACAFAHSSEELAAVPHNGGGQRMRMDPGAHQGNDNGLDNNHLQQ
- soluble on expression in E. coli: soluble

Sequence: MGSDKIHHHHHHMNKLEIENLSKIYGKKVANDKITVTLENGVYGLLGPNGAGKSTLMKQITTLIKPDEGQILYNGEDIFKMDADYRNILGYLPQEFGVYKNFTAKEFLQYIGALKGLRGKYLNSKIGELLDLVGLYDVRNKSIGKFSGGMKRRVGIAQVLLNDPKIIVLDEPTAGLDPQERARFRNLIAKMSRDKIIILSTHIISDIESVAKETIMIKDGKLLMKGTHKDILSHMENKVYNVQVKNECEVDDIQSKYKVVSIQSDINSIVLRIVSEDIPSEDNIQPVQAKFEDVYMFYFDLEDAREV
- soluble on expression in E. coli: not soluble

Sequence: MNQAIGGSFDDVIGNHQADTAMIVQISADRKEINLVSIPRDSLVDVPQCETSKGTIPAQYNVMFNSIFAGAYKTGGDLSSAASCTLNAVNSLTGLNIQNFIVVDFAGLVKMIDSVGGVDLCIPQNVNDPYTGLNLDKGMHHLDGVAATQYARIRHGIGDGSDTSRTTRQQYLIKQLMSEALSKNLFTDTAQLYQLAKSALKSLNISQGMADTAALAGLAMSLKNFTMTNLQTQTVPVVPAPSDPNRSVWTDEADNLWEKMRAGKPIFDTADSNSGGSSDTSSDNSASSDDSGTTDSNQSDTTAETPDPVTGLITKSDGTLVDPSTGGTVDPDDGSIHDATTGQYIGLADRYLNATVCAVPAKNLEHHHHHH
- soluble on expression in E. coli: soluble

Sequence: MITRDFFLFLSKSGFLNKMARNWGSRVAAGKIIGGNDFNSSIPTIRQLNSQGLSVTVDHLGEFVNSAEVARERTEECIQTIATIADQELNSHVSLKMTSLGLDIDMDLVYENMTKILQTAEKHKIMVTIDMEDEVRCQKTLDIFKDFRKKYEHVSTVLQAYLYRTEKDIDDLDSLNPFLRLVKGAYKESEKVAFPEKSDVDENYKKIIRKQLLNGHYTAIATHDDKMIDFTKQLAKEHGIANDKFEFQMLYGMRSQTQLSLVKEGYNMRVYLPYGEDWYGYFMRRLAERPSNIAFAFKGMTKKLEHHHHHH
- soluble on expression in E. coli: soluble

Sequence: MGHHHHHHSHMANSAGSMANSAGSPGSLFRFAVPPALGSNLTDNVMITVDIIPSGWNSADGKSDKTKSAPSRDPERLQKIKESLLLEDSEEEEGDLCRICQMAAASSSNLLIEPCKCTGSLQYVHQDCMKKWLQAKINSGSSLEAVTTCELCKEKLELNLEDFDIHELHRAHANEQAEYEFISSGLYLVVLLHLCEQSFSDMMGNTNEPSTRVRFINLARTLQAHMEDLETSEDDSEEDGDHNRTFDIA
- soluble on expression in E. coli: soluble

Sequence: MAVMIVGGGMAGATLALAISRLSQGTIPVDLIEAYSPLDKEHPGFDARALALSDGTRQQLAALGIWQAMSGNATAITDIHVSERGHASVVNLHAADYHVQALGHVVELHDVGQRLFSLLQQAPGVRLHCPAKVVAVTRTQENATLTLDNGTALTGQLLVAADGSHSMLSQSCGIHWQQHEYDQVAVIANVTTGEPHRGRAFERFTPHGPLALLPMSNGRSSLVWCHDKHRQHDVDGWSETEFRQQLQLAFGWRLGQFTHIGERHSYPLRLLTASQHTSHRLALVGNAAQTLHPIAGQGFNLGIRDVMSLAETLVEAVKNQQDIGQYSVLSRYQQRREPDQHTTVAITDGLVRLFANRYTALAVGRNLGLIAMNNLPLMRDAFARRTLGWVERLEHHHHHH
- soluble on expression in E. coli: not soluble

Sequence: MSLKEEEIQNDFMFEEYHKGDKIVLNSVNGGSKTLIRTDKGFVVEGEEGKVLMFDFFGTFCTPCKEEALDLSKLWKNNSSKFIIIGLTHFEDVSDETVKKFAGDYGAYYFLSNGSSNDRIIAQILKDIDYQNMEQLPFKVVLKNGIYQKISDYWNNNTPTNFYLGKIPTELMQEDLNKIYKGKEGHHHHHH
- soluble on expression in E. coli: soluble

Sequence: MTPIPLINIPLCNLAGDGYILSEKSQSQNMLRGIVMSETVRVGLLGYGYASKTFHAPLIAGTAGMELVAVSSSNAEKVHADWANLRVEKDPQALFSDPDIDLIVIPTPNDTHFPLAKQALEAGKHVVVDKPFTVTLSQAYDLGAIAERAGKVLSVFHNRRWDSDFLTLKQLLSAGTLGNVVYMESHFDRFRPEVRQRWREDGSEGSGIWYDLGPHLLDQALELFGLPVAIQVDMAQLRPGSKATDYFHATLIYPQRRVILHASMLVAAASARYTVHGTRGSFVKYGLDPQEDRLKAGERPPLADWGQDKHDGVLTLSRDGITAEQTIATIPGNYPAYYAAVRDALLGKGENPVGVNQAIQVMELIELGLLSHEQKKAVALKNSLEHHHHHH
- soluble on expression in E. coli: not soluble

Sequence: MPSSGQLYGDEERELTPTPAIPEEGVYEVKYSNRRTNVVRLLPNGFQERKLRRLANLSAKLFNEVNFERRQQFFHEGKVNIEETYKKYYEKYKVILGVNAQAVLNKNNEAWSSFFSLLKLKKEGKLPPHMNHVSPPGYWKDREAGKRKQILVIRQDRYKVDAENHKLILKDFDMEIDFIGRLKWYGKQGRLEIIFDETRNAWYAHIPIEVGVEETKAGKKSKHVVKGERKSIQISKPKGNKVASIDLGINVIASVVVNDGTWLLYKGVRTKEDYFYFQKRIAEVQSLADRTRNIGEYDAYLELLREKRRLFKKLTRRLTHLYRNLASHLIETLYELGVSTIYLGYPFNIVQEKGNKFTVNMWSYRKLMESIELKAQEYGMKVFEVVEYNTSKYCAYHDVEVKRNPRGVINCPLGHKLHSDLNGALNILKKALGVIVNAVKKPLSFIVDHNRVAPIKGCNPLEHHHHHH
- soluble on expression in E. coli: not soluble

Sequence: MINVEQVFALDIGTRLVMGLIMEKAPGGYHIIARAQTEHRQRAMYDGQIHDIEEVAQAVQRVKEELEEKIKGKLHYVSVAAAGRALKTAVATAQKSELIPMIWEREDIFALEMEAVQQALREIQAEDEIIPYHCVGYSTIESLLEGQNLSSLSGQRGKEAQVKVIATFLPRTVIDGLTRVISKVGLEMRELTLEPIAAGRAAIPPDMRRMNLALVDVGAGTSDIALTKSGSFFAYGMVPMAGDEITERICQHFLVDFQTGEKIKRSLNTKTKVTFTDFLGMKTTVNKEEVLEQIQPVVLELAQKLADEILRLNQGNPHAIILIGGGSQTPLLAEVLSDLLELPRNRVGIQVRERIQGVSGEKSLKGPDAITPIGIGISTIEGEGLQYFSVHVNDLTVQIFELQLATVSDALLAAGITPRLLVGRPGSALTVELNGDIKVSKGQFSKPAQFFLNGEEVKLDHELKPGDKIQFIPAQDGENAQATFADLVPAIPEKKIKVNGESVVFTAQIFCNGRPVTRDGDVPDGAKITVFQNQTLKDLLHFLNDKQYSLSEIRYKINGEERVIPIHKEFYINQQKVALERMIKDGDDLVILVKEVYIKDLQLKPTPMVFYVNGQEVEYPPQIFRILSRGRVLSDQEKVVDGMELSVEGYDTMPLLSELLPYVNIPQDVPANARLSLKRNNQEAEFTTPLIPGDRIEIHWEQVASALLEHHHHHH
- soluble on expression in E. coli: soluble
